Assay [1] concerns the target mouse Slo1 (BK channel α subunit) (mouse) (UniProt Q08460).
Assay [2] addresses Drosophila Slo1 (BK channel α subunit) (Drosophila) (UniProt Q03720).

Here are results for two molecules from paper PMC5068790.

Sequence of UniProt Q08460 (Q08460 whole entry): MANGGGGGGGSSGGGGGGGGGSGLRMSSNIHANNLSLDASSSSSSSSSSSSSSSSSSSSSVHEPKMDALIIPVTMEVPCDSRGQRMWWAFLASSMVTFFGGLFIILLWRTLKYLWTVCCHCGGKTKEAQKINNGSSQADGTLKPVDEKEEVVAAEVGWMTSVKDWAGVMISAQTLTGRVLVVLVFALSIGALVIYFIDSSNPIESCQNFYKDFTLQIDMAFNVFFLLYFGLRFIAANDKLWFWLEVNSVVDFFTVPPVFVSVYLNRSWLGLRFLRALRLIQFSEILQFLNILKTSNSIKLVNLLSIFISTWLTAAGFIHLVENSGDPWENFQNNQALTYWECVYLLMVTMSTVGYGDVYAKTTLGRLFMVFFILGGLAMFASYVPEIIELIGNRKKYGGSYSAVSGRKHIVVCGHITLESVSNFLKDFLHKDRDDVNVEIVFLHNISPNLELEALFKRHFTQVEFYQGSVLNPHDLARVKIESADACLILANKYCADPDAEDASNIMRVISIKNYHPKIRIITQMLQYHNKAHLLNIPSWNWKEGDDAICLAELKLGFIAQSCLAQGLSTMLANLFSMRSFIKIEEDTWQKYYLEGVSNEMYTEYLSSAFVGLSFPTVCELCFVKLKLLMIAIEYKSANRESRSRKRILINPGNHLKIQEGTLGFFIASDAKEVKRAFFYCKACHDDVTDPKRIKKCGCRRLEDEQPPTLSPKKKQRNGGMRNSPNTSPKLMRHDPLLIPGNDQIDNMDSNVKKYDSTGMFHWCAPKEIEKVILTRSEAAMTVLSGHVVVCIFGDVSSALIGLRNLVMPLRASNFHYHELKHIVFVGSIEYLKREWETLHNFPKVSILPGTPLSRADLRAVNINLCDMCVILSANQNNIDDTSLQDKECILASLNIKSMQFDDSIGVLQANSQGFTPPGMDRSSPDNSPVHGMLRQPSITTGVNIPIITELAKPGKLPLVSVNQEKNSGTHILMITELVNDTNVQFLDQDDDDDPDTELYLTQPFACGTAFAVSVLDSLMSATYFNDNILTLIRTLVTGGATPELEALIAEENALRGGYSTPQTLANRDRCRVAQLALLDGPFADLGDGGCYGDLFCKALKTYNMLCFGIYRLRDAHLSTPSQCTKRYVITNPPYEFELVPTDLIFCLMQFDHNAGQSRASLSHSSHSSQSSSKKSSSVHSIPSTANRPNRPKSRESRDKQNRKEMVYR
Sequence of UniProt Q03720 (Q03720 whole entry): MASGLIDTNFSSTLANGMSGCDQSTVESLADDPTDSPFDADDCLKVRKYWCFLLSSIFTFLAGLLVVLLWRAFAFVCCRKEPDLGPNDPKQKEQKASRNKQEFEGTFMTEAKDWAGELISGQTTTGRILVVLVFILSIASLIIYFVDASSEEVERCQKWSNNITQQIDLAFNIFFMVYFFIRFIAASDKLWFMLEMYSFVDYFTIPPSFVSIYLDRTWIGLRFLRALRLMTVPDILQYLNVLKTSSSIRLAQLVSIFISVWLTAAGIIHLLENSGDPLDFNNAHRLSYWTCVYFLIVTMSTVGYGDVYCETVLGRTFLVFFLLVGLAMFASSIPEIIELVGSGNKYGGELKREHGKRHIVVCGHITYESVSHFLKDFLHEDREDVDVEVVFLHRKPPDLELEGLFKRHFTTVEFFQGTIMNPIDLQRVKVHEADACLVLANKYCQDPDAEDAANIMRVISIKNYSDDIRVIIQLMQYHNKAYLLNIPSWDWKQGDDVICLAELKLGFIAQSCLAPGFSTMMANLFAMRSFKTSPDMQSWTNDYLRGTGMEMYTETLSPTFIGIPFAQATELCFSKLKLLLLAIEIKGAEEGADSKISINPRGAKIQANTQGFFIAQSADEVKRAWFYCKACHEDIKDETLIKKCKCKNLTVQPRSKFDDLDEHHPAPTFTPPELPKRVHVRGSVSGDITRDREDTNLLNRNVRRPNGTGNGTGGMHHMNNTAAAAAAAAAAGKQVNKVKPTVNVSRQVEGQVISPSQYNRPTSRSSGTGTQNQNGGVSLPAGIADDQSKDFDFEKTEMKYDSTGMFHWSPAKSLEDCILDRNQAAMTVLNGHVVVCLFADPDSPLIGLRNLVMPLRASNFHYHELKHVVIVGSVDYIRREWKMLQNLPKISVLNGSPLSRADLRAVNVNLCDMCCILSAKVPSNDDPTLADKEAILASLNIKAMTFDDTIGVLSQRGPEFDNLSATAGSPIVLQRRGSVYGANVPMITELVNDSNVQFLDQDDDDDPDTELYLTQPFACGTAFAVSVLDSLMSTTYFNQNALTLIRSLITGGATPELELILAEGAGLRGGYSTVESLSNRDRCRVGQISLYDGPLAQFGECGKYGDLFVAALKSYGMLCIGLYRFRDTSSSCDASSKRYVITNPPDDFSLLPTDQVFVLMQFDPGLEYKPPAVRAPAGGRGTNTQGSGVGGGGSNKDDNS

B1: Δ3-β2 (β2 subunit with the inactivation ball FIW deleted) (natural protein)
chain: MTSGRTSSSYRHDEKRNIYQKIRDHDLLDKRKTVTALKAGEDRAILLGLAMMVCSIMMYFLLGITLLRSYMQSVWTEESQCTLLNASITETFNCSFSCGPDCWKLSQYPCLQVYVNLTSSGEKLLLYHTEETIKINQKCSYIPKCGKNFEESMSLVNVVMENFRKYQHFSCYSDPEGNQKSVILTKLYSSNVLFHSLFWPTCMMAGGVAIVAMVKLTQYLSLLCERIQRINR
B1: the patch clamp, inside-out patches of HEK293 cells, α:β2 transfection ratio 1:0.2, 10 μM Ca2+: share of random tests with a left shift of V50 to −30 mV from about +25 mV (called binding rate) in assay [1] came out at 100%. In addition, the patch clamp, inside-out patches of HEK293 cells, transfection ratio 1:0.2: share of random tests with slow activation (called β2 binding rate) in assay [2] stood at 100%.

B2: BK channel auxiliary β2 subunit (natural protein)
chain: MFIWTSGRTSSSYRHDEKRNIYQKIRDHDLLDKRKTVTALKAGEDRAILLGLAMMVCSIMMYFLLGITLLRSYMQSVWTEESQCTLLNASITETFNCSFSCGPDCWKLSQYPCLQVYVNLTSSGEKLLLYHTEETIKINQKCSYIPKCGKNFEESMSLVNVVMENFRKYQHFSCYSDPEGNQKSVILTKLYSSNVLFHSLFWPTCMMAGGVAIVAMVKLTQYLSLLCERIQRINR
As for B2, the patch clamp, inside-out patches of HEK293 cells, α:β2 transfection ratio 1:0.2: share of random tests whose currents showed rapid and complete inactivation (called binding rate) in assay [1] is 100%. Also, the patch clamp, inside-out patches of HEK293 cells: share of random tests with inactivation or brief openings (β2 binding ratio) at α:β2 transfection ratios 1:0.2 (about 7%), 1:1, 1:4 and 1:8 in assay [2] came out at 85%.
